According to the supplement of paper PMC10567573:

B1: NEK8 (parent)
chain: VTIKHVACGDFFTACLTDRGIIMT
B2: ZNF511 (parent)
chain: AAPFRFVARPVRFPREHQFFEDGD

Variants of: B1
Assay: protein stability index of a GFP-peptide fusion (GPS, HEK-293T) (PSI 1-6); higher = more stable
Settings: c terminus: a fixed tail appended
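Note: lentivirally expressed fusions sorted by FACS into six bins by GFP to DsRed ratio, PSI derived from sequencing read proportions per bin multiplied by bin number.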

Variant | protein stability index
VTIKHVACGDFFTACLTDRGIIVT | 2.73
VTIKHVACGDFFTACLTDRGIIST | 2.56
VTIKHVACGDFFTACLTDRGIINT | 2.3
VTIKHVACGDFFTACLTDRGIIGT | 3.62
VTIKHVACGDFFTACLTDRGIIQT | 1.47
VTIKHVACGDFFTACLTDRGIIPT | 2.9
VTIKHVACGDFFTACLTDRGIIHT | 2.61
VTIKHVACGDFFTACLTDRGIIIT | 2.77
VTIKHVACGDFFTACLTDRGIILT | 3.85
VTIKHVACGDFFTACLTDRGIIKT | 1.91
VTIKHVACGDFFTACLTDRGIITT | 1.89
VTIKHVACGDFFTACLTDRGIIRT | 1.41
VTIKHVACGDFFTACLTDRGIIYT | 3.28
VTIKHVACGDFFTACLTDRGIIMV | 2.81
VTIKHVACGDFFTACLTDRGIIMF | 2.64
VTIKHVACGDFFTACLTDRGIIMK | 2.93
VTIKHVACGDFFTACLTDRGIIMC | 2.87
VTIKHVACGDFFTACLTDRGIIMA | 2.87
VTIKHVACGDFFTACLTDRGIIMH | 1.84
VTIKHVACGDFFTACLTDRGIIML | 4.18
VTIKHVACGDFFTACLTDRGIIMN | 2.41
VTIKHVACGDFFTACLTDRGIIMR | 2.45
VTIKHVACGDFFTACLTDRGIIMI | 3.19
VTIKHVACGDFFTACLTDRGIIMY | 2.3
VTIKHVACGDFFTACLTDRGIIMS | 2.33
VTIKHVACGDFFTACLTDRGIIMD | 3.14
VTIKHVACGDFFTACLTDRGIIMG | 3.47
VTIKHVACGDFFTACLTDRGIIME | 3.11

Variants of: B2
Assay: as above
Settings: c terminus: a fixed tail appended

Variant | protein stability index
AAPMRFVARPVRFPREHQFFEDGD | 3.34
AAPGRFVARPVRFPREHQFFEDGD | 4.57
AAPHRFVARPVRFPREHQFFEDGD | 4.58
AAPARFVARPVRFPREHQFFEDGD | 4.66
AAPKRFVARPVRFPREHQFFEDGD | 4.41
AAPVRFVARPVRFPREHQFFEDGD | 4.24
AAPIRFVARPVRFPREHQFFEDGD | 3.9
AAPERFVARPVRFPREHQFFEDGD | 4.46
AAPDRFVARPVRFPREHQFFEDGD | 4.77
AAPSRFVARPVRFPREHQFFEDGD | 4.53
AAPQRFVARPVRFPREHQFFEDGD | 4.68
AAPLRFVARPVRFPREHQFFEDGD | 3.65
AAPWRFVARPVRFPREHQFFEDGD | 2.48
AAPCRFVARPVRFPREHQFFEDGD | 3.4
AAPTRFVARPVRFPREHQFFEDGD | 4.36
AAPYRFVARPVRFPREHQFFEDGD | 3.68
AAPPRFVARPVRFPREHQFFEDGD | 4.84
AAPRRFVARPVRFPREHQFFEDGD | 3.94
AAPNRFVARPVRFPREHQFFEDGD | 4.37
AAPFRFVTRPVRFPREHQFFEDGD | 1.88
AAPFRFVERPVRFPREHQFFEDGD | 1.98
AAPFRFVSRPVRFPREHQFFEDGD | 1.82
AAPFRFVCRPVRFPREHQFFEDGD | 1.96

Variant | protein stability index
AAPFRFVMRPVRFPREHQFFEDGD | 2.74
AAPFRFVGRPVRFPREHQFFEDGD | 2.29
AAPFRFVLRPVRFPREHQFFEDGD | 2.15
AAPFRFVNRPVRFPREHQFFEDGD | 2.23
AAPFRFVVRPVRFPREHQFFEDGD | 1.59
AAPFRFVPRPVRFPREHQFFEDGD | 2.27
AAPFRFVDRPVRFPREHQFFEDGD | 1.3
AAPFRFVWRPVRFPREHQFFEDGD | 2.26
AAPFRFVFRPVRFPREHQFFEDGD | 2.02
AAPFRFVIRPVRFPREHQFFEDGD | 2.77
AAPFRFVHRPVRFPREHQFFEDGD | 2.58
AAPFRFVKRPVRFPREHQFFEDGD | 2.31
AAPFRFVYRPVRFPREHQFFEDGD | 2.19
AAPFRFVQRPVRFPREHQFFEDGD | 1.66
AAPFRFLARPVRFPREHQFFEDGD | 3.64
AAPFRFEARPVRFPREHQFFEDGD | 4.61
AAPFRFMARPVRFPREHQFFEDGD | 3.7
AAPFRFTARPVRFPREHQFFEDGD | 3.23
AAPFRFKARPVRFPREHQFFEDGD | 3.6
AAPFRFAARPVRFPREHQFFEDGD | 3.9
AAPFRFQARPVRFPREHQFFEDGD | 3.78
AAPFRFPARPVRFPREHQFFEDGD | 4.46
AAPFRFSARPVRFPREHQFFEDGD | 3.76

Variant | protein stability index
AAPFRFWARPVRFPREHQFFEDGD | 3.67
AAPFRFYARPVRFPREHQFFEDGD | 3.78
AAPFRFGARPVRFPREHQFFEDGD | 3.74
AAPFRFFARPVRFPREHQFFEDGD | 3.69
AAPFRFRARPVRFPREHQFFEDGD | 3.95
AAPFRFNARPVRFPREHQFFEDGD | 3.28
AAPFRFDARPVRFPREHQFFEDGD | 3.73
AAPFRFIARPVRFPREHQFFEDGD | 2.53
AAPFRFCARPVRFPREHQFFEDGD | 2.65
AAPFRFHARPVRFPREHQFFEDGD | 2.04
AAPFHFVARPVRFPREHQFFEDGD | 3.3
AAPFCFVARPVRFPREHQFFEDGD | 3.05
AAPFNFVARPVRFPREHQFFEDGD | 4.22
AAPFWFVARPVRFPREHQFFEDGD | 1.89
AAPFYFVARPVRFPREHQFFEDGD | 2.15
AAPFAFVARPVRFPREHQFFEDGD | 3.53
AAPFKFVARPVRFPREHQFFEDGD | 3.91
AAPFPFVARPVRFPREHQFFEDGD | 3.92
AAPFTFVARPVRFPREHQFFEDGD | 4.17
AAPFMFVARPVRFPREHQFFEDGD | 3.25
AAPFSFVARPVRFPREHQFFEDGD | 4.16
AAPFQFVARPVRFPREHQFFEDGD | 4.61
AAPFGFVARPVRFPREHQFFEDGD | 3.68

Variant | protein stability index
AAPFEFVARPVRFPREHQFFEDGD | 4.26
AAPFIFVARPVRFPREHQFFEDGD | 2.67
AAPFVFVARPVRFPREHQFFEDGD | 3.58
AAPFLFVARPVRFPREHQFFEDGD | 2.63
AAPFDFVARPVRFPREHQFFEDGD | 4.8
AAPFFFVARPVRFPREHQFFEDGD | 2.18
AASFRFVARPVRFPREHQFFEDGD | 2.76
AAEFRFVARPVRFPREHQFFEDGD | 1.61
AALFRFVARPVRFPREHQFFEDGD | 1.93
AAKFRFVARPVRFPREHQFFEDGD | 1.81
AAIFRFVARPVRFPREHQFFEDGD | 1.34
AATFRFVARPVRFPREHQFFEDGD | 2.1
AAAFRFVARPVRFPREHQFFEDGD | 2.37
AAQFRFVARPVRFPREHQFFEDGD | 2.26
AAVFRFVARPVRFPREHQFFEDGD | 1.53
AAGFRFVARPVRFPREHQFFEDGD | 1.66
AANFRFVARPVRFPREHQFFEDGD | 2.04
AAYFRFVARPVRFPREHQFFEDGD | 2.47
AADFRFVARPVRFPREHQFFEDGD | 1.06
AAMFRFVARPVRFPREHQFFEDGD | 1.62
AACFRFVARPVRFPREHQFFEDGD | 1.36
AAHFRFVARPVRFPREHQFFEDGD | 2.59
AAFFRFVARPVRFPREHQFFEDGD | 1.53

Variant | protein stability index
AAWFRFVARPVRFPREHQFFEDGD | 3.21
AARFRFVARPVRFPREHQFFEDGD | 2.65
WAPFRFVARPVRFPREHQFFEDGD | 2.31
FAPFRFVARPVRFPREHQFFEDGD | 3.42
SAPFRFVARPVRFPREHQFFEDGD | 2.07
PAPFRFVARPVRFPREHQFFEDGD | 2.29
QAPFRFVARPVRFPREHQFFEDGD | 2.61
EAPFRFVARPVRFPREHQFFEDGD | 2.04
DAPFRFVARPVRFPREHQFFEDGD | 2.2
RAPFRFVARPVRFPREHQFFEDGD | 1.93
HAPFRFVARPVRFPREHQFFEDGD | 1.63
YAPFRFVARPVRFPREHQFFEDGD | 4.23
NAPFRFVARPVRFPREHQFFEDGD | 2.51
TAPFRFVARPVRFPREHQFFEDGD | 1.22
MAPFRFVARPVRFPREHQFFEDGD | 3.08
IAPFRFVARPVRFPREHQFFEDGD | 1.82
CAPFRFVARPVRFPREHQFFEDGD | 2.39
KAPFRFVARPVRFPREHQFFEDGD | 2.02
AAPFRFVAMPVRFPREHQFFEDGD | 1.95
AAPFRFVACPVRFPREHQFFEDGD | 1.32
AAPFRFVAIPVRFPREHQFFEDGD | 1.84
AAPFRFVAHPVRFPREHQFFEDGD | 1.89
AAPFRFVAAPVRFPREHQFFEDGD | 2.41

Variant | protein stability index
AAPFRFVAKPVRFPREHQFFEDGD | 1.95
AAPFRFVAGPVRFPREHQFFEDGD | 2.41
AAPFRFVAFPVRFPREHQFFEDGD | 1.56
AAPFRFVAEPVRFPREHQFFEDGD | 2.21
AAPFRFVANPVRFPREHQFFEDGD | 1.38
AAPFRFVAPPVRFPREHQFFEDGD | 3.54
AAPFRFVALPVRFPREHQFFEDGD | 1.94
APPFRFVARPVRFPREHQFFEDGD | 2.32
ARPFRFVARPVRFPREHQFFEDGD | 1.93
ANPFRFVARPVRFPREHQFFEDGD | 3.12
ATPFRFVARPVRFPREHQFFEDGD | 2.28
AFPFRFVARPVRFPREHQFFEDGD | 1.85
ALPFRFVARPVRFPREHQFFEDGD | 1.32
AIPFRFVARPVRFPREHQFFEDGD | 2.69
AGPFRFVARPVRFPREHQFFEDGD | 2.36
AVPFRFVARPVRFPREHQFFEDGD | 1.53
AEPFRFVARPVRFPREHQFFEDGD | 2.8
AKPFRFVARPVRFPREHQFFEDGD | 2.01
ADPFRFVARPVRFPREHQFFEDGD | 3.25
AWPFRFVARPVRFPREHQFFEDGD | 1.47
ASPFRFVARPVRFPREHQFFEDGD | 3.91
AHPFRFVARPVRFPREHQFFEDGD | 2.48
AYPFRFVARPVRFPREHQFFEDGD | 2.42

Variant | protein stability index
ACPFRFVARPVRFPREHQFFEDGD | 2.05
AQPFRFVARPVRFPREHQFFEDGD | 2.1
AMPFRFVARPVRFPREHQFFEDGD | 2.11
AAPFRAVARPVRFPREHQFFEDGD | 4.3
AAPFRQVARPVRFPREHQFFEDGD | 4.94
AAPFRHVARPVRFPREHQFFEDGD | 4.18
AAPFRLVARPVRFPREHQFFEDGD | 3.47
AAPFRMVARPVRFPREHQFFEDGD | 4.13
AAPFRIVARPVRFPREHQFFEDGD | 3.38
AAPFRKVARPVRFPREHQFFEDGD | 4.36
AAPFRRVARPVRFPREHQFFEDGD | 4.03
AAPFRWVARPVRFPREHQFFEDGD | 3.41
AAPFRYVARPVRFPREHQFFEDGD | 1.69
AAPFRGVARPVRFPREHQFFEDGD | 4.43
AAPFRPVARPVRFPREHQFFEDGD | 4.83
AAPFREVARPVRFPREHQFFEDGD | 4.45
AAPFRVVARPVRFPREHQFFEDGD | 3.89
AAPFRSVARPVRFPREHQFFEDGD | 4.26
AAPFRDVARPVRFPREHQFFEDGD | 4.19
AAPFRTVARPVRFPREHQFFEDGD | 4.03
AAPFRNVARPVRFPREHQFFEDGD | 4.55
AAPFRCVARPVRFPREHQFFEDGD | 2.81
